Test results as given in patent US20190359653A1, “SELECTIVE PEPTIDE INHIBITORS OF FRIZZLED” (Genentech, Inc., priority 2016, published 2019).

Biological target: FZD7 class proteins
Test: ELISA of biotinylated Wnt binding to FZD CRD-Fc with or without peptide

B1: Biotinylated Wnt5a (ligand)
chain: IIGAQPLCSQLAGLSQGQKKLCHLYQDHMQYIGEGAKTGIKECQYQFRHRRWNCSTVDNTSVFGRVMQIGSRETAFTYAVSAAGVVNAMSRACREGELSTCGCSRAARPKDLPRDWLWGGCGDNIDYGYRFAKEFVDARERERIHAKGSYESARILMNLHNNEAGRRTVYNLADVACKCHGVSGSCSLKTCWLQLADFRKVGDALKEKYDSAAAMRLNSRGKLVQVNSRFNSPTTQDLVYIDPSPDYCVRNESTGSLGTQGRLCNKTSEGMDGCELMCCGRGYDQFKTVQTERCHCKFHWCCYVKCKKCTEIVDQFVCK
modifications: Biotinylated with the Pierce reagent cat no. 21338; the positions are not stated and the letters are unchanged. The lipid modification of Wnt (fatty acyl moiety) is not carried by the letters.
- fold enhancement of binding by Fz7-21 or dFz7-21: 1.5 to 2 fold
